Data from the supplement of paper PMC9732359.
± gives the uncertainty stated by the source.

Assay: protein stability index of a GFP-peptide fusion (yeast GPS) (PSI 1-4); higher = more stable; sorted into four equal gates, so the index is relative within each strain
Summary of the method: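 Tiled yeast protein peptides of 17 residues were each joined downstream of GFP, on plasmids that also express Cherry. The pooled library was maintained in yeast, and mid-log cultures in leucine-free medium were sorted into four equal gates on the GFP/Cherry ratio. Plasmids from every gate were amplified by PCR and sequenced on Illumina, with barcodes linking reads to strains. The protein stability index of a peptide is its gate-number-weighted read frequency summed over the gates.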

Sequence	protein stability index (doa10∆)	protein stability index (pdr5∆)	protein stability index (san1∆)	protein stability index (ubr1∆)
AIMNCADNSGARNLYII [RPL23A]	2.33 ± 0.089	3.14 ± 0.17	2.52 ± 0.14	3.1 ± 0.17
AINLMGVKNNLLTPKSG [RPO31]	3.11 ± 0.13	2.76 ± 0.12	2.76 ± 0.13	2.63 ± 0.11
AIPNPEDVVAISSRTFG [RPS0A]	3.22 ± 0.1	2.94 ± 0.05	2.91 ± 0.077	2.94 ± 0.043
AIRADPAFKPTEKKFTK [RPL5]	3.11 ± 0.26	3.15 ± 0.3	3.18 ± 0.2	3.2 ± 0.24
AIRKAPHNSKSLGFLQQ [RPN3]	2.9 ± 0.082	2.7 ± 0.086	2.84 ± 0.083	2.54 ± 0.13
AISQSLRDESLTVDNLS [PRE5]	2.96 ± 0.093	3.15 ± 0.089	3.33 ± 0.078	3.32 ± 0.06
AISTGNWSLKRFKMERA [RET1]	1.94 ± 0.097	1.93 ± 0.11	2.44 ± 0.11	1.68 ± 0.077
AITHMIDALGTEFSKND [SCL1]	2.47 ± 0.069	2.54 ± 0.044	2.7 ± 0.08	2.61 ± 0.031
AIVLPMKRADKFKDMGI [RPT5]	2.39 ± 0.096	3.11 ± 0.24	3.09 ± 0.17	3.09 ± 0.16
AKEKERMLEEAIDHLKA [YIL149C/MLP2]	3.03 ± 0.05	3.12 ± 0.054	3.16 ± 0.056	3.01 ± 0.049
AKEVKVLYHTSGAITFV [PRP8]	2.12 ± 0.055	2.5 ± 0.064	2.58 ± 0.055	2.72 ± 0.068
AKGKSGVQTAYIDYSSK [RRP40]	2.54 ± 0.24			2.91 ± 0.24
AKIDVMLTIARLGFFYN [RPN7]	2.44 ± 0.15	2.89 ± 0.14	3.42 ± 0.14	3.14 ± 0.094
AKLSDTLIIDQVRKDLG [NUT1]	2.83 ± 0.11	2.32 ± 0.16	2.7 ± 0.13	2.85 ± 0.09
AKNFSAQKRVVSYMMPS [SRB8]	2.02 ± 0.17		2.28 ± 0.15	1.96 ± 0.13
AKQAKIRAGEFDVVLTT [SNF2]	3.56 ± 0.11	3.3 ± 0.13	2.57 ± 0.12	3.23 ± 0.11
AKRAQFRKKRKFELGRQ [RPS8A]	3.24 ± 0.08	3.28 ± 0.077	3.31 ± 0.066	3.02 ± 0.081
AKTFGASVRIFLYPSNI [RPL33A]	2.38 ± 0.057	2.65 ± 0.056	2.5 ± 0.066	2.59 ± 0.054
ALDFRNVSIVANYIKER [SMC4]	1.51 ± 0.069	2.04 ± 0.058	1.51 ± 0.11	1.82 ± 0.058
ALECRLASAIASGLLRA [CSN12]	1.58 ± 0.072	2.08 ± 0.082	1.77 ± 0.1	1.94 ± 0.075
ALGMMTRISSQFEKSRK [RET1]	1.39 ± 0.066	1.27 ± 0.09	1.37 ± 0.17	1.08 ± 0.06
ALKDPQTDADRVKDPQW [RIP1]	3.26 ± 0.081	3.68 ± 0.23	3.18 ± 0.25	3.6 ± 0.16
ALLIAGHDADDGYQLFH [PUP2]	2.29 ± 0.16	2.86 ± 0.17	3.22 ± 0.12	2.66 ± 0.13
ALMRCSFEETVEILFEA [RPO21]	3.12 ± 0.082	2.6 ± 0.079	3.06 ± 0.062	2.85 ± 0.069
ALRALQENGTIFRGSLI [YDL088C/ASM4]	2.02 ± 0.11	1.68 ± 0.076	1.28 ± 0.1	1.53 ± 0.092
ALSAYHKVQTKLTRELE [RPS7B]	2.4 ± 0.055	2.54 ± 0.058	2.33 ± 0.065	2.58 ± 0.043

Sequence	protein stability index (doa10∆)	protein stability index (pdr5∆)	protein stability index (san1∆)	protein stability index (ubr1∆)
ALSGNEGDASPFTDITV [RPB2]	2.99 ± 0.14	3.12 ± 0.075	3.12 ± 0.099	3.1 ± 0.15
ALTTIKGVGRRYSNLVC [RPS18A]	2.56 ± 0.089	2.4 ± 0.084	2.92 ± 0.12	2.62 ± 0.077
ALVAGIERYPLKVTKKH [RPL27A]	2.17 ± 0.27	2.51 ± 0.12	1.87 ± 0.24	
AMEFIFGNSLICEDPET [SMC2]	2.38 ± 0.073	2.25 ± 0.054	1.37 ± 0.094	1.88 ± 0.049
AMNDKDLTMGQVGERIK [RPO21]	3.31 ± 0.17	3.26 ± 0.14	2.82 ± 0.13	3.08 ± 0.099
AMREVNDEKRVKEEYDI [YIL149C/MLP2]	2.62 ± 0.25	2.57 ± 0.17		
ANEQLKLFNRIVERETN [CSN12]	2.5 ± 0.12	2.73 ± 0.16	1.71 ± 0.24	2.81 ± 0.15
ANGGSTIISPHKDIPEE [DSN1]	3.44 ± 0.21	3.44 ± 0.16	3.57 ± 0.079	2.88 ± 0.28
ANHDDQDDIDEMVENSS [SRP68]	3.1 ± 0.1	3.2 ± 0.11	3.14 ± 0.095	3.13 ± 0.07
ANIFRIHSKSMSVERGI [RPT1]	3.16 ± 0.11	3.01 ± 0.14	3.18 ± 0.13	2.9 ± 0.13
ANLLQINVDNDPFFAQS [YML103C/NUP188]	3.04 ± 0.059	3.14 ± 0.06	2.88 ± 0.055	2.93 ± 0.094
ANNDINSLLSNFNDIPP [YDL088C/ASM4]	2.56 ± 0.097	2.87 ± 0.18	2.67 ± 0.27	3.13 ± 0.14
ANNGAAFSPLTTTRIQS [MED2]	2.67 ± 0.081	2.91 ± 0.06	2.65 ± 0.066	2.66 ± 0.044
ANNYSSNIGNNSINNNN [YDL088C/ASM4]	2.51 ± 0.071	3.19 ± 0.078	2.94 ± 0.085	2.76 ± 0.054
ANPKKLALMTAHSLSPK [CDC53]	2.43 ± 0.052	2.78 ± 0.054	2.72 ± 0.057	2.32 ± 0.036
ANVELTPSNIRSLCEVL [RPC34]	1.32 ± 0.053	1.68 ± 0.064	1.69 ± 0.078	2.02 ± 0.07
APGKVELAINLIRFDES [SMC2]	3.12 ± 0.16	3.11 ± 0.11	3.52 ± 0.12	2.83 ± 0.08
APIKKIIERYIKSKADA [PRP8]	3.11 ± 0.12	3.24 ± 0.12	2.98 ± 0.079	3.13 ± 0.11
APLKALVQEQVREFQRR [BRR2]	1.26 ± 0.1	1.24 ± 0.092	1.3 ± 0.13	1.26 ± 0.13
APLNFNPIIENNVDNKY [SSN2]	2.69 ± 0.052	2.97 ± 0.049	2.79 ± 0.046	2.88 ± 0.046
APLNLEIPAYEFDGDKV [RIP1]	2.6 ± 0.099	2.54 ± 0.096	2.55 ± 0.077	2.72 ± 0.077
APNHSPEIDNLDDLVVL [RRP6]	3.16 ± 0.11	3.51 ± 0.11	3 ± 0.15	2.71 ± 0.088
APPQRPRFNRENKVSPA [RPS26A]	3.38 ± 0.15	2.83 ± 0.17	3 ± 0.072	2.95 ± 0.12
AQANNNNNGLPQNGNIN [GAL11]	3.04 ± 0.049	3.11 ± 0.049	3.05 ± 0.056	2.98 ± 0.038
AQAQAQAQAQAHAQHQP [GAL11]	2.81 ± 0.029	2.926 ± 0.023	2.834 ± 0.027	3.032 ± 0.024
